{
  "source": "paper PMC4920389",
  "origin": "cited, not measured here",
  "target": "Glu23 (UniProt position 23, FAVDEENKIGQ)",
  "assay": "stability",
  "conditions": "native (folded) state",
  "data": [
    {"substance": "MNEI (single-chain monellin) (Dioscoreophyllum cumminsii)", "values": [
      {"measurement": "pKa", "value": "approximately 7.5"}
    ]}
  ]
}
